Measurements as given in article PMC3408433, “Selective Cytotoxicity of Amidinopiperidine Based Compounds Towards Burkitt’s Lymphoma Cells Involves Proteasome Inhibition” (PLoS ONE, 2012).

Legend:
Format in all cases: biochemical
Conditions in all cases: other: substrate on purified human 20S proteasome; pH 8.0; 37.0 °C
[1] = substrate: Cc1cc(=O)oc2cc(NC(=O)[C@H](Cc3ccc(O)cc3)NC(=O)[C@@H](NC(=O)[C@H](CC(C)C)NC(=O)[C@H](CC(C)C)NC(=O)CCC(=O)O)C(C)C)ccc12; test: Proteasome activity measurement, chymotrypsin-like
Experimental: (§1) Suc-Leu-Leu-Val-Tyr-AMC, Bz-Val-Gly-Arg-AMC and Z-Leu-Leu-Glu-AMC (Bachem, Bubendorf, Switzerland) were used for the chymotrypsin-like, trypsin-like and caspase-like activites, respectively. Assay buffer consisted of TE buffer (20 mM Tris (pH = 8.0), 0.5 mM EDTA, 0.03% SDS). Substrate hydrolysis was continuously monitored at 37°C with an automated microplate reader (Tecan Safire^2). Measured fluorescence values (RFU) were plotted versus time with nonlinear regression to fit a Michaelis-Menten plot.
(§2) For the Ki determination, 25 µL of substrate at three concentrations and 25 µL of inhibitor of interest also at three different concentrations were added to the wells of a white microplate. The reaction was initiated with 50 µL of the enzyme in the assay buffer. Flourescence of the AMC release was continuously monitored at 420 nm with 320 nm excitation.
(§3) Km and Ki were calculated using SigmaPlot 11 (Enzyme Kinetics Module 1.3) and are presented as the mean of three independent experiments.

[2] = substrate: Cc1cc(=O)oc2cc(NC(=O)[C@H](CCC(=O)O)NC(=O)[C@H](CC(C)C)NC(=O)[C@H](CC(C)C)NC(=O)OCc3ccccc3)ccc12; test: Proteasome activity measurement, caspase-like
Experimental: as §1, §2, §3

[3] = substrate: Cc1cc(=O)oc2cc(NC(=O)[C@H](CCCNC(=N)N)NC(=O)CNC(=O)[C@@H](NC(=O)c3ccccc3)C(C)C)ccc12; test: Proteasome activity measurement, trypsin-like
Experimental: as §1, §2, §3

B1: chymotrypsin-like activity of human 20S proteasome (Homo sapiens) (protein)
chain: TTTLAFKFRHGVIVAADSRATAGAYIASQTVKKVIEINPYLLGTMAGGAADCSFWERLLARQCRIYELRNKERISVAAASKLLANMVYQYKGMGLSMGTMICGWDKRGPGLYYVDSEGNRISGATFSVGSGSVYAYGVMDRGYSYDLEVEQAYDLARRAIYQATYRDAYSGGAVNLYHVREDGWIRVSSDNVADLHEKYSGSTP
notes: purchased Boston Biochem, Inc
With B1 the Km [1] was 100 ± 12 µM.

B2: caspase-like activity of human 20S proteasome (Homo sapiens) (protein)
chain: TTIMAVQFDGGVVLGADSRTTTGSYIANRVTDKLTPIHDRIFCCRSGSAADTQAVADAVTYQLGFHSIELNEPPLVHTAASLFKEMCYRYREDLMAGIIIAGWDPQEGGQVYSVPMGGMMVRQSFAIGGSGSSYIYGYVDATYREGMTKEECLQFTANALALAMERDGSSGGVIRLAAIAESGVERQVLLGDQIPKFAVATLPPA
notes: purchased Boston Biochem, Inc
B2 was tested, and the Km [2] was 37 ± 9 µM.

B3: trypsin-like activity of human 20S proteasome (Homo sapiens) (protein)
chain: TTIAGVVYKDGIVLGADTRATEGMVVADKNCSKIHFISPNIYCCGAGTAADTDMTTQLISSNLELHSLSTGRLPRVVTANRMLKQMLFRYQGYIGAALVLGGVDVTGPHLYSIYPHGSTDKLPYVTMGSGSLAAMAVFEDKFRPDMEEEEAKNLVSEAIAAGIFNDLGSGSNIDLCVISKNKLDFLRPYTVPNKKGTRLGRYRCEKGTTAVLTEKITPLEIEVLEETVQTMDTS
notes: purchased Boston Biochem, Inc
B3 was tested, and the Km [3] was 44 ± 5 µM.
